In patent US20240327502A1 (Merck Sharp & Dohme, published 2024):
Where two headings read alike, the source gives them in different places.

How the values were obtained:
[1] = target: T1, F protein of hMPV A virus (human metapneumovirus subtype A); experiment: cell-based or functional assay
[2] = target: T2, F protein of hMPV B virus (human metapneumovirus subtype B); experiment: cell-based or functional assay
[3] = target: T3, unprocessed hMPV PreF trimeric antigen (human metapneumovirus strain B2); experiment: ELISA; Ni-NTA plate coated with Expi293 supernatant containing the His-tagged antigen; antibody titrated; OD450
T3 construct: also called unprocessed hMPV WT PreF trimer; hMPV WT trimer

K312Q = target: T4, K312Q; experiment: as above
T4 construct: also called unprocessed hMPV PreF K312Q

D296K = target: T5, D296K; experiment: as above
T5 construct: also called unprocessed hMPV PreF D296K

T61A, S175R, A185D = target: T6, T61A, S175R, A185D; experiment: as above
T6 construct: also called unprocessed hMPV PreF T61A/S175R/A185D

N135T G139N Y233N = target: T7, N135T G139N Y233N; experiment: as above
T7 construct: also called unprocessed hMPV PreF N135T/G139N/Y233N

T143K = target: T8, T143K; experiment: as above
T8 construct: also called unprocessed hMPV PreF T143K

[4] = target: T1, F protein of hMPV A virus; experiment: cell-based or functional assay; remark: listed apart in the source
[5] = target: T2, F protein of hMPV B virus; experiment: cell-based or functional assay; remark: listed apart in the source
[6] = target: T3, unprocessed hMPV PreF trimeric antigen; experiment: ELISA; Ni-NTA plate coated with Expi293 supernatant containing the His-tagged antigen; antibody titrated; OD450; remark: listed apart in the source
D414K = target: T9, D414K; experiment: as above
T9 construct: also called unprocessed hMPV PreF D414K

[7] = target: T10, F protein of hMPV A MARM virus V231A/G264R (human metapneumovirus subtype A); experiment: cell-based or functional assay
[8] = target: T11, F protein of hMPV A MARM virus G264R/Q434H (human metapneumovirus subtype A); experiment: cell-based or functional assay
[9] = target: T12, F protein of hMPV A MARM virus K138Q (human metapneumovirus subtype A); experiment: cell-based or functional assay
[10] = target: T10, F protein of hMPV A MARM virus …; experiment: cell-based or functional assay; remark: listed apart in the source
[11] = target: T11, F protein of hMPV A MARM virus …; experiment: cell-based or functional assay; remark: listed apart in the source
[12] = target: T12, F protein of hMPV A MARM virus K138Q; experiment: cell-based or functional assay; remark: listed apart in the source
[13] = target: T1, F protein of hMPV A virus; experiment: cell-based or functional assay; remark: listed apart in the source
[14] = target: F protein of RSV B/Washington virus (respiratory syncytial virus B, …); experiment: cell-based or functional assay
MPV-F (Example 7) = target: T13, MPV-F (Example 7) (human metapneumovirus, UniProt Q6WB98 19-489); experiment: ELISA on supernatant of cells transiently transfected with the MPV-F construct; antibody titrated; OD450
T13 construct: also called hMPV F monomer

R198A = target: T14, R198A; experiment: as above
T14 construct: also called MPV-F R198A

N202A = target: T15, N202A; experiment: as above
T15 construct: also called MPV-F N202A

D209Y = target: T16, D209Y; experiment: as above
T16 construct: also called MPV-F D209Y

N210A = target: T17, N210A; experiment: as above
T17 construct: also called MPV-F N210A

A216Y = target: T18, A216Y; experiment: as above
T18 construct: also called MPV-F A216Y

L219Y = target: T19, L219Y; experiment: as above
T19 construct: also called MPV-F L219Y

A249Y = target: T20, A249Y; experiment: as above
T20 construct: also called MPV-F A249Y

R253A = target: T21, R253A; experiment: as above
T21 construct: also called MPV-F R253A

R329A = target: T22, R329A; experiment: as above
T22 construct: also called MPV-F R329A

[15] = target: T3, unprocessed hMPV PreF trimeric antigen; experiment: ELISA; Ni-NTA plate coated with Expi293 supernatant containing the His-tagged antigen; antibody titrated; OD450; remark: listed apart in the source
[16] = target: unprocessed hMPV PreF K138Q (human metapneumovirus strain B2); experiment: as above
[17] = target: unprocessed hMPV PreF G264R (human metapneumovirus strain B2); experiment: as above
[18] = target: unprocessed hMPV PreF V231A/G264R (human metapneumovirus strain B2); experiment: as above
[19] = target: unprocessed hMPV PreF G264R/Q434H (human metapneumovirus strain B2); experiment: as above
V231A = target: T23, V231A; experiment: as above
T23 construct: also called unprocessed hMPV PreF V231A

Q434H = target: T24, Q434H; experiment: as above
T24 construct: also called unprocessed hMPV PreF Q434H

B1: M2A05 (antibody, V domains shown)
VH: QITLKESGPTLVKPTQTLTLTCTVSGFSLSANSVGVAWFRQPPGKAPEWLGVIYWDDDKRFSPSLKTRLSITKDASTSQVVLRLTNVSPLDTATYYCVRKHYDLLQWGQGAPVTVSS
VL: EIVLTQSPGTLSLSPGEGATLSCRASRSVNSDYIAWYQHKPGLAPRLLIYAASTRATDIPDRFRADVSGTDFTLTIDRLEPDDFAVYYCQQYGSAVWTFGQGTRVEVK
notes: IgG
PRNT IC50 [1]: > 10 µg/mL | PRNT IC50 [2]: 0.0657 µg/mL | EC50 (read off the curve) [3]: ~0.004 µg/mL | EC50 (read off the curve) (K312Q): ~0.003 µg/mL | EC50 (read off the curve) (D296K): ~0.07 µg/mL | EC50 (read off the curve) (T61A, S175R, A185D): ~0.004 µg/mL | EC50 (read off the curve) (N135T G139N Y233N): ~0.003 µg/mL | EC50 (read off the curve) (T143K): ~0.003 µg/mL

B2: M8C10 (antibody, V domains shown)
VH: QVQLVESGGGVVQPGRSLRLSCAASGFTFTTYTMHWVRQAPGKGLEWVALISSDGNNKYYADSVKGRFTISRDNSKNTLYLQMSSLRAEDTAVYYCARGYYSGGDAFDVWGQGTMVTVSS
VL: DIQMTQSPSTLSASVGDRVTITCRASQTITIWLAWYQQKPGKAPKLLIYDAVSLESGVPSRFRGSGSGTDFTLTISSLQPDDFATYYCQQYNNYPYTFGQGTKLEIKR
virus neutralization IC50, MPV strain A1 [4]: 371 nM | virus neutralization IC50, MPV strain B2 [5]: 660 nM | PRNT IC50 [1]: 0.37 µg/mL | PRNT IC50 [2]: 0.66 µg/mL

B3: M1A04 (antibody, V domains shown)
VH: EVQLVESGGGLVRPGGSLRLSCAASGFNVRNYYMSWVRQAPGKGLEWISVIYGGGTTFYAGSVKGRFTISRDDSKSTLFLQMNSLRADDTAVYYCARDPGTVMSTENLQGMDVWGQGTTVTVSS
VL: DIQMTQSPSSLSASVGDRVTITCRASQTIRSYLNWYQQKPGKAPNLLIYAATSLQSGVPSRFSGSGSGTDFTLTISSLQPEDSATYYCQQSFSTLYSFGQGTRLEIK
notes: IgG
PRNT IC50 [1]: 0.0872 µg/mL | PRNT IC50 [2]: 0.128 µg/mL | EC50 (read off the curve) [6]: ~0.005 µg/mL | binding result (D414K): binds

B4: M4B06 (antibody, V domains shown)
VH: EVQLLESGGGFVQPGGSLRLSCVVTGFTFSNYAMCWVRQAPGKGPEWVSGIGGSVGTTYYADSVKGRFTISRDNSKNTLYLQMSGLRAEDTARYYCAKVPSFFVFEDGFDMWGQGTVVTVSS
VL: QSVLTQPPSASGNPGQRVTISCYGSGSNIGNNYVHWFRQLPGTAPRLLIYNTDILVPGVPDRFSGSESGTSASLAISGLQSGDEADYFCAAWDDTLNGYVFGPGTTVTVL
fold reduction of neutralization potency against the MARM virus [7]: 52 fold | fold reduction of neutralization potency against the MARM virus [8]: 70 fold | fold reduction of neutralization potency against the MARM virus [9]: 49 fold | PRNT IC50 [1]: 0.0035 µg/mL | PRNT IC50 [2]: 0.0022 µg/mL | IC50, hMPV plaque reduction neutralization [10]: 0.524 µg/mL | IC50, hMPV plaque reduction neutralization [11]: 0.7 µg/mL | IC50, hMPV plaque reduction neutralization [12]: 0.49 µg/mL | IC50, hMPV plaque reduction neutralization [13]: 0.0103 µg/mL

B5: M2D2 (antibody, V domains shown)
VH: QVQLVQSGAEVKKPGASVKVSCKASGYNFDNYYMSWVRQAPGQGLEWLGIIDPSGGRISYAPKFQGRVTLTRDTSTSTVYMELRGLRFEDTALYYCARLEATHEGPWGQGTLVTVSS
VL: QSVLTQPPSASGTPGQRVTISCSGSNSNIGSSTVNWYQQLPGTAPKLLIYSDNHRPSGVPDRFSGSRSGTSASLVISGLHSEDEADYYCGTWDDGLNGPYVFGTGTKVTVL
notes: IgG
PRNT IC50 [14]: 0.0039 µg/mL | PRNT IC50 [1]: 0.0296 µg/mL | PRNT IC50 [2]: 0.0584 µg/mL | EC50 (read off the curve) (MPV-F (Example 7)): ~0.02 µg/mL | EC50 (read off the curve) (R198A): ~0.02 µg/mL | EC50 (read off the curve) (N202A): ~0.03 µg/mL | EC50 (read off the curve) (D209Y): ~0.04 µg/mL | EC50 (read off the curve) (N210A): ~0.02 µg/mL | EC50 (read off the curve) (A216Y): ~0.04 µg/mL | EC50 (read off the curve) (L219Y): ~0.05 µg/mL | EC50 (read off the curve) (A249Y): ~0.05 µg/mL | EC50 (read off the curve) (R253A): ~0.04 µg/mL | EC50 (read off the curve) (R329A): ~0.03 µg/mL | EC50 (read off the curve) [15]: ~0.004 µg/mL | EC50 (read off the curve) [16]: ~0.006 µg/mL | binding result [17]: binds | binding result [18]: binds | binding result [19]: binds | EC50 (read off the curve) (V231A): ~0.006 µg/mL | EC50 (read off the curve) (Q434H): ~0.01 µg/mL
